Two molecules from US20210102174A1 (TAIPEI VETERANS GENERAL HOSPITAL, published 2021) can be followed below.

B1: Nanog (endogenous, mouse embryonic stem cells) (other, UniProt Q80Z64 1-305, looked up)
chain: MSVGLPGPHSLPSSEEASNSGNASSMPAVFHPENYSCLQGSATEMLCTEAASPRPSSEDLPLQGSPDSSTSPKQKLSSPEADKGPEEEENKVLARKQKMRTVFSQAQLCALKDRFQKQKYLSLQQMQELSSILNLSYKQVKTWFQNQRMKCKRWQKNQWLKTSNGLIQKGSAPVEYPSIHCSYPQGYLVNASGSLSMWGSQTWTNPTWSSQTWTNPTWNNQTWTNPTWSSQAWTAQSWNGQPWNAAPLHNFGEDFLQPYVQLQQNFSASDLEVNLEATRESHAHFSTPQALELFLNYSVTPPGEI

Assay [1] concerns the target T1, Flag-tagged full-length Ash2l (Ash2l-Full length: 1-623) (UniProt Q91X20 1-623).
T1 construct: range 1-623; Expressed in cells for co-IP, ChIP and reporter assays, or purified from E. coli BL21 for in vitro pull-downs; also called Flag-Ash2l^WT; Flag-Ash2l-F; not shown: 3xFlag tag of the p3xFlag plasmid
As to the kind of experiment: co-IP of Flag-tagged Ash2l constructs from nuclear extracts, Western blot. How it is done: (§1) For samples from gel filtration, we used Centricon (Millipore) to concentrate and desalt the fraction of elute. Cleared sample solution was obtained by centrifugation at 12 000 rpm for 30 min at 4° C., and 0.5-1.5 mg of the sample was used for immunoprecipitations. For identify interacting complex of Ash2l protein, sample was added into primary antibody for 2 h at […] followed by 2 h of further incubation with protein A/G-Sepharose beads. After washing three times with the lysis buffer, immunoprecipitated proteins were eluted from the beads by boiling for 5 min in SDS-PAGE sample buffer and analyzed by immunoblotting.
(§2) To identify the domain(s) of Ash2l responsible for this protein interaction, we constructed expression plasmids for Flag-tagged truncated Ash2l (Ash2l-N-terminus: 1-172, the PHD domain; and Ash2l-C-terminus: 387-623, the SPRY domain) and full-length Ash2l (Ash2l-full length: 1-623; FIG. 2D) for various experiments. First, we overexpressed truncated and full-length Ash2l proteins in HEK293T cells, and subjected the nuclear extracts to immunoprecipitation (FIG. 2E). Rbbp5 associated with full-length Ash2l and Ash2l-C, which is consistent with previous findings (26). Remarkably, Oct4, Sox2, and Nanog associated with full-length Ash2l and Ash2l-N terminus, but not Ash2l-C terminus (FIG. 2E). To further assess the direct protein-protein interaction, Ash2l-N, Ash2l-C, and full-length Ash2l recombinant proteins were purified from bacteria (FIG. 2G) and independently incubated with various recombinant proteins, including Oct4, Sox2 and Nanog, and the p300 (Taz domain) protein. As shown in the in vitro pull-down assays with further analysis using Western blot or Coomassie staining (FIG. 2F and 2G), Ash2l directly interacted with the master stemness factors, Oct4, Sox2, and Nanog through its N terminus (1-172) (FIG. 2F and 2G). We then used the ZDOCK software to simulate the molecular docking between Ash2l and Oct4 and further predicted that several residues at the N terminus of Ash2l, including K117, W118, E180, K190, N217, and K220, may be crucial for the recognition and interaction with Oct4 (FIG. 2H). To determine which residue(s) of Ash2l was important for its interaction with Oct4, we used immunoprecipitation to assess the binding abilities of different Flag-tagged Ash2l mutants (K117A, W118A, E180A, K190A, N217A, and K220A) to Myc-tagged Oct4.
A general note: A western blot detects proteins with antibodies after separation by electrophoresis.

Assay [2] addresses T2, Ash2l (endogenous, in nuclear extracts of mouse embryonic stem cells) (mouse, UniProt Q91X20 1-623, limits assumed).
T2 construct: Endogenous protein in gel filtration fractions of ESC nuclear extracts or on ESC chromatin
As to the kind of experiment: co-IP from gel filtration fraction 1 of ESC nuclear extract; also fraction 3 after Wdr5 knockdown (Ash2l still interacted with OSN). How it is done: as §1
Nuclear extraction was performed according to the manual instruction. Biochemical fractionation of ESC extracts into seven fractions was performed as described previously (Ang et al., 2011). Briefly, ESCs were lysed with lysis buffer and applied onto […] column (HiPrep 16/60 Sephycryl). […]
To further understand the role of Ash2l in stemness regulation, we used gel filtration analysis (FIG. 2A) followed by Western blot to investigate the profiles of molecular complexes in the nuclei of ESCs (FIG. 2B). […] Subsequently, we assessed these OSN-enriched (fraction 1), OSN/WRD-enriched (fraction 3), and WRD-enriched fractions (fraction 4) in an immunoprecipitation assay. […]
(In gel filtration, larger molecules generally elute earlier.)

In assay [3] the target is B1. As to the kind of experiment: co-IP of Flag-tagged Ash2l constructs from nuclear extracts, Western blot. How it is done: as §1, §2
The target in assay [4] is Oct4 (endogenous, mouse embryonic stem cells) (mouse, UniProt P20263 1-352). The assay is described as above. The method, then: as §1, §2
Assay [5] deals with Sox2 (endogenous, mouse embryonic stem cells) (mouse, UniProt P48432 1-319). Described as above. The method, then: as §1, §2
Sox2 (endogenous, mouse embryonic stem cells), sequence (P48432 whole entry): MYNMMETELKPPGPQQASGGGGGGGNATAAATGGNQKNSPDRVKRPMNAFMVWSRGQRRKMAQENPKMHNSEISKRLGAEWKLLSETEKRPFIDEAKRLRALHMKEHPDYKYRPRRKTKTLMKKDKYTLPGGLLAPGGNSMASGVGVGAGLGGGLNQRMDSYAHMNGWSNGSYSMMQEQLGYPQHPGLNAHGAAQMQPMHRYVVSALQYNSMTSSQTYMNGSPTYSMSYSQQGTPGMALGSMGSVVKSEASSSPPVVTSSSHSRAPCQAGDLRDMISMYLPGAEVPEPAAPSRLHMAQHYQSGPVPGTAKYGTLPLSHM

Oct4 (endogenous, mouse embryonic stem cells), sequence (P20263 whole entry): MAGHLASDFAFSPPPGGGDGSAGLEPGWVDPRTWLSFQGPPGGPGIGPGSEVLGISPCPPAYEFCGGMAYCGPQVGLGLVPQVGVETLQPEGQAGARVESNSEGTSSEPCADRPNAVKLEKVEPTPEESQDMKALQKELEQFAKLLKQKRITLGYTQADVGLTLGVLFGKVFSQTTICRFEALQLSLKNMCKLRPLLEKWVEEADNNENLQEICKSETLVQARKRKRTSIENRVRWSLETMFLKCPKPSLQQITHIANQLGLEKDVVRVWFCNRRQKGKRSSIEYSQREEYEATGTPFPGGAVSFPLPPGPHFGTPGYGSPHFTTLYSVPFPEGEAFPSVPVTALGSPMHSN

B1: the binding result in assay [1] and in assay [2] was “binds” throughout.

B2: Flag-tagged Ash2l-N terminus (1-172, the PHD domain) (other, UniProt Q91X20 1-172, looked up)
chain: MAAAGAGPGPGVSAGPGPGAAASATTAEDRETEPVAAGAGEGPSAAPGAEPSSGEAESGDANLVDVSGLETESSNGKDTLEGTGDTSEVMDTQAGSVDEENGRQLGEVELQCGICTKWFTADTFGIDTSSCLPFMTNYSFHCNVCHHSGNTYFLRKQANLKEMCLSALANLT
notes: range 1-172; also called Flag-Ash2l-N; not shown: 3xFlag tag of the p3xFlag plasmid
For the molecule B2, the binding result in assay [3], in assay [4] and in assay [5] was “binds” in each case.
